The supplement of paper PMC10567573

B1: KCNK9 (parent)
chain: DVPDLQSVCSCTCYRSQDYGGRSV

Variants of: B1
Experiment: protein stability index of a GFP-peptide fusion (GPS, HEK-293T) (PSI 1-6); higher = more stable
Settings: c terminus: a fixed tail appended
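Further: lentivirally expressed fusions sorted by FACS into six bins by GFP to DsRed ratio, PSI derived from sequencing read proportions per bin multiplied by bin number.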

Variant | protein stability index
DVPDLQSVCSCTCYRSQRYGGRSV [D18R] | 1.36
DVPDLQSVCSCTCYRSQDYGGRYV [S23Y] | 2.59
DVPDLQSVESCTCYRSQDYGGRSV [C9E] | 2.37
DVPGLQSVCSCTCYRSQDYGGRSV [D4G] | 1.45
DVPDLQSVCSCTCYRSQDYGQRSV [G21Q] | 1.4
DVPDLQSVCSCTCYRSQDYGGRSH [V24H] | 1.64
DVPDLQSVCSCTCNRSQDYGGRSV [Y14N] | 2.23
DVPDLQSVCSCTCYRSQDYGGDSV [R22D] | 3.58
DVPDLQSVCSCTCYRSQDYGGGSV [R22G] | 2.06
DVPDLQSVCSCTCYRSQDYGGFSV [R22F] | 1.33
DPPDLQSVCSCTCYRSQDYGGRSV [V2P] | 1.55
DVPDLQSVCSCTYYRSQDYGGRSV [C13Y] | 1.94
DVPDLQSVCSCTCYRSQDYGGRSE [V24E] | 2.15
DVPDLQSVCSCTCYRSQDIGGRSV [Y19I] | 2.18
DVADLQSVCSCTCYRSQDYGGRSV [P3A] | 1.34
DVWDLQSVCSCTCYRSQDYGGRSV [P3W] | 1.33
DVPDLQSVCLCTCYRSQDYGGRSV [S10L] | 2.39
SVPDLQSVCSCTCYRSQDYGGRSV [D1S] | 2.29
DVPDRQSVCSCTCYRSQDYGGRSV [L5R] | 1.77
DVPDLISVCSCTCYRSQDYGGRSV [Q6I] | 2.39
DVPDLQSVCSCTCTRSQDYGGRSV [Y14T] | 1.5
LVPDLQSVCSCTCYRSQDYGGRSV [D1L] | 2.59
DVPDLQSVCSCTCYRSQDYGGRSA [V24A] | 1.68
DVPQLQSVCSCTCYRSQDYGGRSV [D4Q] | 3.18

Variant | protein stability index
DVPDLQSVCACTCYRSQDYGGRSV [S10A] | 1.66
DVPDLQSVCSCTRYRSQDYGGRSV [C13R] | 2.19
DVPDLHSVCSCTCYRSQDYGGRSV [Q6H] | 1.88
DVPDLQSVCSCTCYRPQDYGGRSV [S16P] | 3.56
DEPDLQSVCSCTCYRSQDYGGRSV [V2E] | 2.93
DVPDLQSVCSCTCYRSQDYGGRSQ [V24Q] | 1.72
DVPDLQSVCSCTCYRSQNYGGRSV [D18N] | 2.08
DVPDLQSVCSCTCYRSQDYGKRSV [G21K] | 1.9
DVPDLQSVCSNTCYRSQDYGGRSV [C11N] | 3.21
DVPDLQSVCSCTCYRSQDYKGRSV [G20K] | 2.37
DVPDLQSVCSCTCYRSQDYGGMSV [R22M] | 2.04
DVPDLVSVCSCTCYRSQDYGGRSV [Q6V] | 1.97
DVPDLQEVCSCTCYRSQDYGGRSV [S7E] | 1.81
DVPDLQSVCSCTCYRSQDYGGHSV [R22H] | 2.43
DVPDLQSVCSCTCYRAQDYGGRSV [S16A] | 1.2
DVPDLQSVCSCTCYSSQDYGGRSV [R15S] | 2.48
DSPDLQSVCSCTCYRSQDYGGRSV [V2S] | 2.19
DVPDLQSVCSCTCYRSRDYGGRSV [Q17R] | 2.58
DVPDLQSVCSCTCYRSQDYGGRLV [S23L] | 2.27
DVPDLQSVCSCTCYRSQDYGGKSV [R22K] | 3.06
DVPDLQSDCSCTCYRSQDYGGRSV [V8D] | 2.8
DVPDLQSVCSCTCYRSQFYGGRSV [D18F] | 1.2
DVPDLQSVMSCTCYRSQDYGGRSV [C9M] | 2.06
DVPDLQSVCSCTMYRSQDYGGRSV [C13M] | 1.73

Variant | protein stability index
DVPDLQSVCSVTCYRSQDYGGRSV [C11V] | 2.46
DVPDLKSVCSCTCYRSQDYGGRSV [Q6K] | 1.98
DVPDLQSVCSCTCARSQDYGGRSV [Y14A] | 1.91
DVPDLQSVCSFTCYRSQDYGGRSV [C11F] | 2.06
DVPELQSVCSCTCYRSQDYGGRSV [D4E] | 2.06
DVPDLQSVCSCTPYRSQDYGGRSV [C13P] | 2.81
DVPDLQSVCSCTCYRSQDYGGRFV [S23F] | 2.11
DVPDLQSVCSCTCYHSQDYGGRSV [R15H] | 2.68
DVPDLQSVCSCTCYRSQDYGRRSV [G21R] | 1.62
DVPDLQSVCSKTCYRSQDYGGRSV [C11K] | 3.05
DVPDLQSVCSCTCYTSQDYGGRSV [R15T] | 2.2
DVPDLQSQCSCTCYRSQDYGGRSV [V8Q] | 2.42
DVPDLQSVCSITCYRSQDYGGRSV [C11I] | 2.39
DVPDLQSVCSCTCYRSQSYGGRSV [D18S] | 2.33
DVPDLQSVCSCTCYRSQDYPGRSV [G20P] | 2.03
DVPDPQSVCSCTCYRSQDYGGRSV [L5P] | 2.64
DVPDLQSACSCTCYRSQDYGGRSV [V8A] | 2.8
DVPDLQSVDSCTCYRSQDYGGRSV [C9D] | 3.26
DVPDLQSVCSCTCYRSQPYGGRSV [D18P] | 1.67
DVPDLQSVCSCTCYRSQDYGTRSV [G21T] | 2.63
DVHDLQSVCSCTCYRSQDYGGRSV [P3H] | 1.8
DVPDLQSVCSCTCYRSQDYGGESV [R22E] | 3.3
DVPDLQSVCSCTCYRSQDYLGRSV [G20L] | 1.67
DVPDLQGVCSCTCYRSQDYGGRSV [S7G] | 1.81

Variant | protein stability index
DVPDLQSVCSCTCYRSQDYGGRSI [V24I] | 2.37
DVPDLMSVCSCTCYRSQDYGGRSV [Q6M] | 2.61
DVPDLQSVCSCTCYRSWDYGGRSV [Q17W] | 2.44
DVPDLQSVCSCTCYRSQDGGGRSV [Y19G] | 1.58
DVPDLQSVCSCTCYRSNDYGGRSV [Q17N] | 1.51
DVPDLESVCSCTCYRSQDYGGRSV [Q6E] | 1.3
DVPDLYSVCSCTCYRSQDYGGRSV [Q6Y] | 4.08
DVPDLQSVLSCTCYRSQDYGGRSV [C9L] | 2.16
DVPDLQSVCSCTCRRSQDYGGRSV [Y14R] | 2.37
DCPDLQSVCSCTCYRSQDYGGRSV [V2C] | 2.07
DVPDLQSVVSCTCYRSQDYGGRSV [C9V] | 2.18
DVPDLQSVCSCTCYRSTDYGGRSV [Q17T] | 2.39
DVPDLQSVCSCTCYRSMDYGGRSV [Q17M] | 2.76
DVPDLQSVCFCTCYRSQDYGGRSV [S10F] | 1.26
DVPDLQYVCSCTCYRSQDYGGRSV [S7Y] | 2.07
DVPDLQSVCSCTCYRSQLYGGRSV [D18L] | 1.73
DVPDLQSVCSCECYRSQDYGGRSV [T12E] | 2.4
DVPDLQSVCSCTCYRSQDAGGRSV [Y19A] | 1.88
DGPDLQSVCSCTCYRSQDYGGRSV [V2G] | 1.5
DVPDLQIVCSCTCYRSQDYGGRSV [S7I] | 2.29
DVPDLQSVGSCTCYRSQDYGGRSV [C9G] | 1.75
DVPDLQSVCSCWCYRSQDYGGRSV [T12W] | 2.72
